Target: T1, Rat ROBO2 on cells (rat, UniProt Q7TPD3 22-1469 (mouse entry))
T1 construct: overexpressed on HEK293 cells in flow cytometry; endogenous on rat SVZ neuronal explants in the SVZa assay
T1 chain: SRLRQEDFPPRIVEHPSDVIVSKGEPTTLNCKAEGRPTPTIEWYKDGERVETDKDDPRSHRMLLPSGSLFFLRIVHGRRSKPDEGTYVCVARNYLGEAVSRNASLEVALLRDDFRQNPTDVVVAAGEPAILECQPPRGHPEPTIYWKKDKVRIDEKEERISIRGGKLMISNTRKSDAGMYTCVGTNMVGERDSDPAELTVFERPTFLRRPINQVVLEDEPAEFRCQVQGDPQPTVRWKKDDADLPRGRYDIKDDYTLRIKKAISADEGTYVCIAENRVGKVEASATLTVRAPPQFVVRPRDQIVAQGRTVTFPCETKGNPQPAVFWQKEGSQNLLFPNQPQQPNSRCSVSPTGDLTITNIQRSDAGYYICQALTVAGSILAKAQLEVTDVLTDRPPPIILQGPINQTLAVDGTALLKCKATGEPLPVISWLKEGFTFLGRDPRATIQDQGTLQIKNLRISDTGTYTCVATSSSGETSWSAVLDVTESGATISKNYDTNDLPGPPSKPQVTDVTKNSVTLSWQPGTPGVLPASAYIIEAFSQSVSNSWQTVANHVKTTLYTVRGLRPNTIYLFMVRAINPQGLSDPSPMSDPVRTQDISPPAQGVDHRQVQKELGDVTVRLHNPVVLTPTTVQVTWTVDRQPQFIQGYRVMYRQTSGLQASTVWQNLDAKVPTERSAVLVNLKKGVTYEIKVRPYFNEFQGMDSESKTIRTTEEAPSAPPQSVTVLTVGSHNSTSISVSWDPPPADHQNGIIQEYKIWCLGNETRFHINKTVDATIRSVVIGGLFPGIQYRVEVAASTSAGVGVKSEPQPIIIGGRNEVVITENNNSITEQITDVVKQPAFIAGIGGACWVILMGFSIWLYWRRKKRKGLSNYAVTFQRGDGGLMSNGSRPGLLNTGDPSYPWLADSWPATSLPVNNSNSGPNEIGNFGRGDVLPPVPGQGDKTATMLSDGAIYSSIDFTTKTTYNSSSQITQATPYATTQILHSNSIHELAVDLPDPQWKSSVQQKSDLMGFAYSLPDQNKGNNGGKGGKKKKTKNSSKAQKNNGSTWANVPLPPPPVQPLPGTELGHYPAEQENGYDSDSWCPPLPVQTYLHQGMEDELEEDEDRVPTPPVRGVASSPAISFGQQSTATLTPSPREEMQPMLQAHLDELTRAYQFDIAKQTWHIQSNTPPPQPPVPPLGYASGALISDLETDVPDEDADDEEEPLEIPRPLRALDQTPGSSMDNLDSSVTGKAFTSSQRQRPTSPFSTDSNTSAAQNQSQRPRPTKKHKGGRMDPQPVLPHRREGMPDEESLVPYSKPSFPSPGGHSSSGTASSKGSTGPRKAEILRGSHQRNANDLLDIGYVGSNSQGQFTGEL
Assay: flow cytometry, HEK293 cells
Protocol: Using flow cytometry, improvement in the binding EC₅₀ to human ROBO2 relative to the parental 93H2 was evaluated. Starting at 6.7 nM, 11-point, 3-fold dilution series were made for each antibody and used to stain HEK293 overexpressing human ROBO2 as described above for the ROBO2 fold selectivity (Example 2). […] In addition to measuring improved binding to human ROBO2, it was important to ensure that high affinity binding to both cynomolgus monkey ROBO2 and rat ROBO2 was maintained. Using HEK293 cells overexpressing either cynomolgus monkey ROBO2 or rat ROBO2, the relative dose-dependent binding of 93H2, Abcs25 and Abcs35 was evaluated as described above. High affinity binding to both cynomolgus monkey and rat ROBO2 was maintained in Abcs25 and Abcs35 (Table 4). […] Briefly, Abcs35 was immobilized to 300 resonance units (RU) on a CM5 chip. Association of ROBO2 Ig1-Ig2-His (ROBO2) was measured over 5 minutes and dissociation was followed for a period of 10 minutes.
The binding profile of Abcs35-J compared to Abcs35 was determined for human ROBO2, orthologs from cynomolgus monkey and rat, human ROBO1 and specificity for the RSK epitope from ROBO2 but not KSR from ROBO1. Binding was assessed by flow cytometry as described in Examples 2 (homolog specificity), Example 3 (ortholog reactivity) and Example 5 (RSK vs KSR epitope specificity). […] Binding of the antibodies was detected using a secondary fluorochrome conjugated anti-human IgG F(ab′)₂ antibody and samples analyzed on a Fortessa cytometer (BD Biosciences).

B1: Abcs35 (antibody, human IgG1, kappa)
heavy: EVQLVQSGAEVKKPGASVKVSCKASGYTFTGYYMHWVRQAPGQGLEWMGWINPKNGDTEFPQKFQGRVTMTRDTSITTAYMDLSRLRSDDTAVYYCARESGDDAFDIWGQGTMVTVSSASTKGPSVFPLAPSSKSTSGGTAALGCLVKDYFPEPVTVSWNSGALTSGVHTFPAVLQSSGLYSLSSVVTVPSSSLGTQTYICNVNHKPSNTKVDKKVEPKSCDKTHTCPPCPAPEAAGAPSVFLFPPKPKDTLMISRTPEVTCVVVDVSHEDPEVKFNWYVDGVEVHNAKTKPREEQYNSTYRVVSVLTVLHQDWLNGKEYKCKVSNKALPAPIEKTISKAKGQPREPQVYTLPPSREEMTKNQVSLTCLVKGFYPSDIAVEWESNGQPENNYKTTPPVLDSDGSFFLYSKLTVDKSRWQQGNVFSCSVMHEALHNHYTQKSLSLSPGK
light: DIVMTQSPSSLSASVGDRVTITCRASQSISSYLNWYQQKPGKAPKLLIYAASSLQSGVPSRFSGSGSGTDFTLTISSLQPEDFATYYCQQSVGLFFGGGTKVEIKRTVAAPSVFIFPPSDEQLKSGTASVVCLLNNFYPREAKVQWKVDNALQSGNSQESVTEQDSKDSTYSLSSTLTLSKADYEKHKVYACEVTHQGLSSPVTKSFNRGEC
notes: fully human IgG1; VH of Ab96 with VL of Ab123
Work on B1 yielded an EC50 of 26 pM.

B2: Abcs35-J (antibody, human IgG1, kappa)
heavy: EVQLVQSGAEVKKPGASVKVSCKASGYTFTGYYMHWVRQAPGQGLEWMGWINPKNGDTEFPQKFQGRVTMTRDTSITTAYMELSRLRSDDTAVYYCARESGDDAFDIWGQGTMVTVSSASTKGPSVFPLAPSSKSTSGGTAALGCLVKDYFPEPVTVSWNSGALTSGVHTFPAVLQSSGLYSLSSVVTVPSSSLGTQTYICNVNHKPSNTKVDKKVEPKSCDKTHTCPPCPAPEAAGAPSVFLFPPKPKDTLMISRTPEVTCVVVDVSHEDPEVKFNWYVDGVEVHNAKTKPREEQYNSTYRVVSVLTVLHQDWLNGKEYKCKVSNKALPAPIEKTISKAKGQPREPQVYTLPPSREEMTKNQVSLTCLVKGFYPSDIAVEWESNGQPENNYKTTPPVLDSDGSFFLYSKLTVDKSRWQQGNVFSCSVMHEALHNHYTQKSLSLSPGK
light: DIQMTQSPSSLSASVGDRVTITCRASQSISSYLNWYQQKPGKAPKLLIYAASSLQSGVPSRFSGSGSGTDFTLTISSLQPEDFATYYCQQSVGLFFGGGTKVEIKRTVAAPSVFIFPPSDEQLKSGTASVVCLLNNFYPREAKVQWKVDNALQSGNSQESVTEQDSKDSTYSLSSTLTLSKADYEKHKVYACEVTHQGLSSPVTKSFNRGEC
notes: germlined variant of Abcs35; also called ABCS-J
Work on B2 yielded an EC50 of 26 pM.

— US20200157212A1 (Pfizer, published 2020)
